# Assay results: US8299023 (Hoffmann-La Roche, dated 2012)
# Numbered stars: 1 amine (or outer) side, 2 acyl side, 3 side chain; on linkers, the order of the positions; unused ones are H or OH. Square brackets hold non-standard residues; d marks the D form. Primed or numbered codes have the meaning given here. HomPqa = 3-hydroxy-2-(4-oxo-6-piperazin-1-yl-4H-quinazolin-3-yl)-propionic acid, O=C(C(CO[*:3])n1cnc2ccc(N3CCN([*:1])CC3)cc2c1=O)[*:2]; Pdp = (6-oxo-2-piperazin-1-yl-1,6-dihydropurin-7-yl)-acetic acid, O=C(Cn1cnc2nc(N3CCN([*:1])CC3)[nH]c(=O)c21)[*:2]; Dqa = (6-[1,4]diazepan-1-yl-4-oxo-4H-quinazolin-3-yl)-acetic acid, O=C(Cn1cnc2ccc(N3CCCN([*:1])CC3)cc2c1=O)[*:2]; Pipa = (1-oxo-7-piperazin-1-yl-1H-isoquinolin-2-yl)-acetic acid, O=C(Cn1ccc2ccc(N3CCN([*:1])CC3)cc2c1=O)[*:2]; Appa = (6-Amino-2-piperazin-1-yl-9H-purin-8-yl)-acetic acid, Nc1nc(N2CCN([*:1])CC2)nc2[nH]c(CC(=O)[*:2])nc12; Cip = (5-Piperazin-1-yl-indole-1-yl)-acetic acid, O=C(Cn1ccc2cc(N3CCN([*:1])CC3)ccc21)[*:2]; Cba′ = (4-Aminomethyl-biphenyl-3-yl)-acetic acid, O=C(Cc1cc(-c2ccccc2)ccc1CN[*:1])[*:2]; Bqa = ((1R,4S)-6-2-Aza-bicyclo[2.2.1]hept-5-yl-4-oxo-4H-quinazolin)-acetic acid; Ppa = (2-piperazin-1-yl-purin-7-yl)-acetic acid; NMeR = CN[C@@H](CCCNC(=N)N)C(=O)O
# T1: human NPY2 receptor (human, UniProt P49146 1-381)
# T1 sequence (looked up): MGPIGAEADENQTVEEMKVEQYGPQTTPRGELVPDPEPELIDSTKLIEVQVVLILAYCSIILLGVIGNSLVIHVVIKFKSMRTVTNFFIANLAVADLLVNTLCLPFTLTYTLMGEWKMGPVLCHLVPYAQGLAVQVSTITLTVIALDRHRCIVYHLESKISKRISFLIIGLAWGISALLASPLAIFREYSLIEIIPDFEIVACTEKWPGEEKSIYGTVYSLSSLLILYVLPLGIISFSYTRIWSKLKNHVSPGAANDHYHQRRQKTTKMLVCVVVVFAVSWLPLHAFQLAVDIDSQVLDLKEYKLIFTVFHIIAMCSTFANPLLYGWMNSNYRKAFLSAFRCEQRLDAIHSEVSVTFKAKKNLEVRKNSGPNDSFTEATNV
# T2: Y5R
# T2 sequence (Q15761 whole entry, species assumed, looked up): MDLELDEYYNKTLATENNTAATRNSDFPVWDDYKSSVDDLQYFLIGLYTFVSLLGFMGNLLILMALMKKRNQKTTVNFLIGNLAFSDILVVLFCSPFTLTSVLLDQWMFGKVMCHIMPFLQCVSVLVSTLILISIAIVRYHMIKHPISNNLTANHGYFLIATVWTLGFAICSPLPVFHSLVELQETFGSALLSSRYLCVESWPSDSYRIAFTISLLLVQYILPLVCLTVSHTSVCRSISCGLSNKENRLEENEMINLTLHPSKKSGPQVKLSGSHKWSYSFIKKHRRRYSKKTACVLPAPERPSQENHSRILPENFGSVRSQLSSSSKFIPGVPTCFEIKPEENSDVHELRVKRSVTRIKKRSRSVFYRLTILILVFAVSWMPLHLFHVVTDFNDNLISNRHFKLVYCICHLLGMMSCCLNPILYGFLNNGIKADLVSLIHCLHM
# Tests used:
# Test in all cases: cell-based or functional assay
# Y1R = target: Y1R
# Y1R, sequence (P25929 whole entry): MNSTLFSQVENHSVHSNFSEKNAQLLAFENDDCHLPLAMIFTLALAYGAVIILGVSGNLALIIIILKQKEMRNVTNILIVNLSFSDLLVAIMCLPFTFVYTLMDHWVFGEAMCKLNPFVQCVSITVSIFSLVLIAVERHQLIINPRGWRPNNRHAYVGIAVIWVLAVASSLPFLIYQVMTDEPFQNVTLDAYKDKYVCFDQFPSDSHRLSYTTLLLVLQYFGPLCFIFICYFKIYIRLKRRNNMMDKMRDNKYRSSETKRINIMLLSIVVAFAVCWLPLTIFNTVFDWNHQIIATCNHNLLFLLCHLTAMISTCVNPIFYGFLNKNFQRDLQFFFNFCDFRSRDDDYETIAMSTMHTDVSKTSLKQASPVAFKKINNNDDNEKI
# human NPY2 receptor = target: T1, human NPY2 receptor
# Y5R = target: T2, Y5R
# Y4R = target: Y4R
binder,measurement,setting,value
Ac-IK[Pipa]RHYLNWVTRQ[NMeR]Y-NH2 (SMILES CC[C@H](C)[C@H](NC(C)=O)C(=O)N[C@@H](CCCCN)C(=O)N1CCN(c2ccc3ccn(CC(=O)N[C@@H](CCCNC(=N)N)C(=O)N[C@@H](Cc4c[nH]cn4)C(=O)N[C@@H](Cc4ccc(O)cc4)C(=O)N[C@@H](CC(C)C)C(=O)N[C@@H](CC(N)=O)C(=O)N[C@@H](Cc4c[nH]c5ccccc45)C(=O)N[C@H](C(=O)N[C@H](C(=O)N[C@@H](CCCNC(=N)N)C(=O)N[C@@H](CCC(N)=O)C(=O)N(C)[C@@H](CCCNC(=N)N)C(=O)N[C@@H](Cc4ccc(O)cc4)C(N)=O)[C@@H](C)O)C(C)C)c(=O)c3c2)CC1) [Ac-Ile-Lys-Pipa-Arg-His-Tyr-Leu-Asn-Trp-Val-Thr-Arg-Gln-(NMe)Arg-Tyr-NH2],Y1R EC50 (nM) FLIPR,Y1R,> 5000 nM
same,"Y2R EC50 (nM) FLIRR (Ca flux, FLIPR)",human NPY2 receptor,0.045 nM
same,Y2R EC50 (nM) cAMP,human NPY2 receptor,0.18 nM
same,Y5R EC50 (nM) FLIPR,Y5R,2340 nM
same,Y4R EC50 (nM) FLIPR,Y4R,> 5000 nM
Ac-IK[Cip]RHYLNWVTRQ[NMeR]Y-NH2 (SMILES CC[C@H](C)[C@H](NC(C)=O)C(=O)N[C@@H](CCCCN)C(=O)N1CCN(c2ccc3c(ccn3CC(=O)N[C@@H](CCCNC(=N)N)C(=O)N[C@@H](Cc3c[nH]cn3)C(=O)N[C@@H](Cc3ccc(O)cc3)C(=O)N[C@@H](CC(C)C)C(=O)N[C@@H](CC(N)=O)C(=O)N[C@@H](Cc3c[nH]c4ccccc34)C(=O)N[C@H](C(=O)N[C@H](C(=O)N[C@@H](CCCNC(=N)N)C(=O)N[C@@H](CCC(N)=O)C(=O)N(C)[C@@H](CCCNC(=N)N)C(=O)N[C@@H](Cc3ccc(O)cc3)C(N)=O)[C@@H](C)O)C(C)C)c2)CC1) [Ac-Ile-Lys-Cip-Arg-His-Tyr-Leu-Asn-Trp-Val-Thr-Arg-Gln-(NMe)Arg-Tyr-NH2],Y1R EC50 (nM) FLIPR,Y1R,> 30000 nM
same,"Y2R EC50 (nM) FLIRR (Ca flux, FLIPR)",human NPY2 receptor,0.14 nM
same,Y2R EC50 (nM) cAMP,human NPY2 receptor,0.36 nM
same,Y5R EC50 (nM) FLIPR,Y5R,10700 nM
same,Y4R EC50 (nM) FLIPR,Y4R,> 30000 nM
Ac-IK[Cba′]RHYLNWVTRQ[NMeR]Y-NH2 [Ac-Ile-Lys-Cba-Arg-His-Tyr-Leu-Asn-Trp-Val-Thr-Arg-Gln-(NMe)Arg-Tyr-NH2],Y1R EC50 (nM) FLIPR,Y1R,> 30000 nM
same,"Y2R EC50 (nM) FLIRR (Ca flux, FLIPR)",human NPY2 receptor,0.51 nM
same,Y2R EC50 (nM) cAMP,human NPY2 receptor,1.97 nM
same,Y5R EC50 (nM) FLIPR,Y5R,> 30000 nM
same,Y4R EC50 (nM) FLIPR,Y4R,> 30000 nM
Ac-IK[Dqa]RHYLNWVTRQ[NMeR]Y-NH2 [Ac-Ile-Lys-Dqa-Arg-His-Tyr-Leu-Asn-Trp-Val-Thr-Arg-Gln-(NMe)Arg-Tyr-NH2],Y1R EC50 (nM) FLIPR,Y1R,> 9000 nM
same,"Y2R EC50 (nM) FLIRR (Ca flux, FLIPR)",human NPY2 receptor,0.25 nM
same,Y2R EC50 (nM) cAMP,human NPY2 receptor,0.35 nM
same,Y5R EC50 (nM) FLIPR,Y5R,6030 nM
same,Y4R EC50 (nM) FLIPR,Y4R,> 9000 nM
Ac-IK[HomPqa]RHYLNWVTRQ[NMeR]Y-NH2 [Ac-Ile-Lys-HomPqa-Arg-His-Tyr-Leu-Asn-Trp-Val-Thr-Arg-Gln-(NMe)Arg-Tyr-NH2],Y1R EC50 (nM) FLIPR,Y1R,> 9000 nM
same,"Y2R EC50 (nM) FLIRR (Ca flux, FLIPR)",human NPY2 receptor,0.6 nM
same,Y2R EC50 (nM) cAMP,human NPY2 receptor,4.35 nM
same,Y5R EC50 (nM) FLIPR,Y5R,4940 nM
same,Y4R EC50 (nM) FLIPR,Y4R,2790 nM
Ac-IK[Ppa]RHYLNWVTRQ[NMeR]Y-NH2 [Ac-Ile-Lys-Ppa-Arg-His-Tyr-Leu-Asn-Trp-Val-Thr-Arg-Gln-(NMe)Arg-Tyr-NH2],Y1R EC50 (nM) FLIPR,Y1R,> 5000 nM
same,"Y2R EC50 (nM) FLIRR (Ca flux, FLIPR)",human NPY2 receptor,0.45 nM
same,Y2R EC50 (nM) cAMP,human NPY2 receptor,0.12 nM
same,Y5R EC50 (nM) FLIPR,Y5R,1100 nM
same,Y4R EC50 (nM) FLIPR,Y4R,> 5000 nM
Ac-IK[Pdp]RHYLNWVTRQ[NMeR]Y-NH2 (SMILES CC[C@H](C)[C@H](NC(C)=O)C(=O)N[C@@H](CCCCN)C(=O)N1CCN(c2nc3ncn(CC(=O)N[C@@H](CCCNC(=N)N)C(=O)N[C@@H](Cc4c[nH]cn4)C(=O)N[C@@H](Cc4ccc(O)cc4)C(=O)N[C@@H](CC(C)C)C(=O)N[C@@H](CC(N)=O)C(=O)N[C@@H](Cc4c[nH]c5ccccc45)C(=O)N[C@H](C(=O)N[C@H](C(=O)N[C@@H](CCCNC(=N)N)C(=O)N[C@@H](CCC(N)=O)C(=O)N(C)[C@@H](CCCNC(=N)N)C(=O)N[C@@H](Cc4ccc(O)cc4)C(N)=O)[C@@H](C)O)C(C)C)c3c(=O)[nH]2)CC1) [Ac-Ile-Lys-Pdp-Arg-His-Tyr-Leu-Asn-Trp-Val-Thr-Arg-Gln-(NMe)Arg-Tyr-NH2],Y1R EC50 (nM) FLIPR,Y1R,> 9000 nM
same,"Y2R EC50 (nM) FLIRR (Ca flux, FLIPR)",human NPY2 receptor,0.037 nM
same,Y2R EC50 (nM) cAMP,human NPY2 receptor,0.24 nM
same,Y5R EC50 (nM) FLIPR,Y5R,> 9000 nM
same,Y4R EC50 (nM) FLIPR,Y4R,> 9000 nM
Ac-IK[Bqa]RHYLNWVTRQ[NMeR]Y-NH2 [Ac-Ile-Lys-Bqa-Arg-His-Tyr-Leu-Asn-Trp-Val-Thr-Arg-Gln-(NMe)Arg-Tyr-NH2],Y1R EC50 (nM) FLIPR,Y1R,> 5000 nM
same,"Y2R EC50 (nM) FLIRR (Ca flux, FLIPR)",human NPY2 receptor,0.072 nM
same,Y2R EC50 (nM) cAMP,human NPY2 receptor,0.17 nM
same,Y5R EC50 (nM) FLIPR,Y5R,2870 nM
same,Y4R EC50 (nM) FLIPR,Y4R,> 5000 nM
Ac-IK[Appa]RHYLNWVTRQ[NMeR]Y-NH2 [Ac-Ile-Lys-Appa-Arg-His-Tyr-Leu-Asn-Trp-Val-Thr-Arg-Gln-(NMe)Arg-Tyr-NH2],Y1R EC50 (nM) FLIPR,Y1R,> 5000 nM
same,"Y2R EC50 (nM) FLIRR (Ca flux, FLIPR)",human NPY2 receptor,0.156 nM
same,Y2R EC50 (nM) cAMP,human NPY2 receptor,0.18 nM
same,Y5R EC50 (nM) FLIPR,Y5R,3300 nM
same,Y4R EC50 (nM) FLIPR,Y4R,> 5000 nM
